From patent publication US20230357348A1 (AstraZeneca / MedImmune, published 2023)
Starred links: 1 amine or outer side, 2 acyl side, 3 side chain; linkers in the order of their positions; H or OH if unused. Non-standard residues stand in square brackets, D forms with d. Groups on a side chain read outwards from the residue. No end group written: not given here. *: point of attachment. C18 diacid = O=C(O)CCCCCCCCCCCCCCCCC(=O)*; γGlu = O=C(O)[C@H](CCC(=O)[*:2])N[*:1]; αMeF = C[C@](N)(Cc1ccccc1)C(=O)O; AEEA = NCCOCCOCC(=O)O; Aib = CC(C)(N)C(=O)O

Columns and labels:
[1] = target: human GLP-1 receptor (hGLP-1R) (human, UniProt P43220 24-463); test: cell-based or functional assay
[2] = target: human glucagon receptor (hGCGR) (human, UniProt P47871 26-477); test: cell-based or functional assay
Sequence of human glucagon receptor (hGCGR) (P47871 26-477): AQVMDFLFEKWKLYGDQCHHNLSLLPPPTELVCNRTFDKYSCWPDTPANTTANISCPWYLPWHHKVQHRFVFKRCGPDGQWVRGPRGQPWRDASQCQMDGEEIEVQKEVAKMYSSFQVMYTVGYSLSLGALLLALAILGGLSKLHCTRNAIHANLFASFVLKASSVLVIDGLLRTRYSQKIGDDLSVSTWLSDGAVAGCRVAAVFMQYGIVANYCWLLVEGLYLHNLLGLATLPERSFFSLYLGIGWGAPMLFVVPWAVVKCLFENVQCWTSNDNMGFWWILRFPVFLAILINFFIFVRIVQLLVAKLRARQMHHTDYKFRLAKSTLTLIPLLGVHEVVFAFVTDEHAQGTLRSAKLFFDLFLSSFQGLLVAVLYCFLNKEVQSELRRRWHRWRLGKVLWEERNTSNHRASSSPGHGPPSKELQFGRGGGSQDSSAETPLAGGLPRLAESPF

| hGLP-1R EC50 (pM) [1] [pM] | hGluc-R EC50 (pM) [2] [pM] | Binder |
| --- | --- | --- |
| 45.2 | 509 | H[Aib]QGTFTSDVSK[αMeF]LDSK([γGlu-γGlu-AEEA-AEEA-γGlu-γGlu-C18 diacid])RARDFVRWLLE[Aib]G-OH (N-terminus assumed; SMILES CC(C)C[C@H](NC(=O)[C@H](Cc1c[nH]c2ccccc12)NC(=O)[C@H](CCCNC(=N)N)NC(=O)[C@@H](NC(=O)[C@H](Cc1ccccc1)NC(=O)[C@H](CC(=O)O)NC(=O)[C@H](CCCNC(=N)N)NC(=O)[C@H](C)NC(=O)[C@H](CCCNC(=N)N)NC(=O)[C@H](CCCCNC(=O)CC[C@H](NC(=O)CC[C@H](NC(=O)COCCOCCNC(=O)COCCOCCNC(=O)CC[C@H](NC(=O)CC[C@H](NC(=O)CCCCCCCCCCCCCCCCC(=O)O)C(=O)O)C(=O)O)C(=O)O)C(=O)O)NC(=O)[C@H](CO)NC(=O)[C@H](CC(=O)O)NC(=O)[C@H](CC(C)C)NC(=O)[C@](C)(Cc1ccccc1)NC(=O)[C@H](CCCCN)NC(=O)[C@H](CO)NC(=O)[C@@H](NC(=O)[C@H](CC(=O)O)NC(=O)[C@H](CO)NC(=O)[C@@H](NC(=O)[C@H](Cc1ccccc1)NC(=O)[C@@H](NC(=O)CNC(=O)[C@H](CCC(N)=O)NC(=O)C(C)(C)NC(=O)[C@@H](N)Cc1c[nH]cn1)[C@@H](C)O)[C@@H](C)O)C(C)C)C(C)C)C(=O)N[C@@H](CC(C)C)C(=O)N[C@@H](CCC(=O)O)C(=O)NC(C)(C)C(=O)NCC(=O)O) [Peptide 136] |
| 143 | 268 | H[Aib]QGTFTSDVSK[αMeF]LDSK([γGlu-γGlu-AEEA-AEEA-γGlu-γGlu-C18 diacid])RAQDFVRWLLEG[Aib]-OH (N-terminus assumed; SMILES CC(C)C[C@H](NC(=O)[C@H](CC(C)C)NC(=O)[C@H](Cc1c[nH]c2ccccc12)NC(=O)[C@H](CCCNC(=N)N)NC(=O)[C@@H](NC(=O)[C@H](Cc1ccccc1)NC(=O)[C@H](CC(=O)O)NC(=O)[C@H](CCC(N)=O)NC(=O)[C@H](C)NC(=O)[C@H](CCCNC(=N)N)NC(=O)[C@H](CCCCNC(=O)CC[C@H](NC(=O)CC[C@H](NC(=O)COCCOCCNC(=O)COCCOCCNC(=O)CC[C@H](NC(=O)CC[C@H](NC(=O)CCCCCCCCCCCCCCCCC(=O)O)C(=O)O)C(=O)O)C(=O)O)C(=O)O)NC(=O)[C@H](CO)NC(=O)[C@H](CC(=O)O)NC(=O)[C@H](CC(C)C)NC(=O)[C@](C)(Cc1ccccc1)NC(=O)[C@H](CCCCN)NC(=O)[C@H](CO)NC(=O)[C@@H](NC(=O)[C@H](CC(=O)O)NC(=O)[C@H](CO)NC(=O)[C@@H](NC(=O)[C@H](Cc1ccccc1)NC(=O)[C@@H](NC(=O)CNC(=O)[C@H](CCC(N)=O)NC(=O)C(C)(C)NC(=O)[C@@H](N)Cc1c[nH]cn1)[C@@H](C)O)[C@@H](C)O)C(C)C)C(C)C)C(=O)N[C@@H](CCC(=O)O)C(=O)NCC(=O)NC(C)(C)C(=O)O) [Peptide 137] |
